# Patent US20250115886A1
# Biological target: TsCC(A)-(RGG)3-GFP scaffold (Caenorhabditis elegans)
# Test: integrated fluorescence intensity in condensates over whole cell, U2OS cells
substance,measurement,value
Rac1-mCherry-TsCC(B) (from UniProt P63000 1-189),fraction of client localized to the synthetic organelle,50%
